Series [1] concerns the target Fis;Xis-wt (phage lambda) (UniProt P0A6R3). Kind of series: EMSA. Particulars: apparent Kd of Xis for Fis-bound DNA; 4 nM Fis; EMSA: 20 mM HEPES pH 7.5, 0.1 M NaCl, 5% glycerol, 500 ug/ml BSA, 1 mM EDTA, 1 mM DTT, 25 C; competitor 50 ug/ml poly dI/dC (34 bp), 5 ug/ml poly dI/dC (Fig 2) ….
For series [2], the system named is Xis-Arg39Ala (phage lambda). In words: EMSA. Particulars: no Fis; cooperative; EMSA: 20 mM HEPES pH 7.5, 0.1 M NaCl, 5% glycerol, 500 ug/ml BSA, 1 mM EDTA, 1 mM DTT, 25 C; competitor 50 ug/ml poly dI/dC (34 bp), 5 ug/ml poly dI/dC (Fig 2) ….
The test system of series [3] is Xis-Arg39Lys (phage lambda). In words: EMSA. Particulars: no Fis; stepwise, non-cooperative; EMSA: 20 mM HEPES pH 7.5, 0.1 M NaCl, 5% glycerol, 500 ug/ml BSA, 1 mM EDTA, 1 mM DTT, 25 C; competitor 50 ug/ml poly dI/dC (34 bp), 5 ug/ml poly dI/dC (Fig 2) ….
Series [4] concerns the molecule itself. Kind of series: crystal structure; Fis dimer and Xis^1-55 co-bound to 27 bp DNA duplexes (FX2, FX1-2-1Xis, FX1-2-2Xis); complexes formed in 20 mM Tris-HCl pH 7.5, 200 mM Na acetate; crystals grown at 4°C in 0.1 M HEPES pH 7-7.5, 15% PEG4000.
Series [5] concerns the target T1, Fis;Xis1-55 (Escherichia coli?;phage lambda, UniProt P0A6R3;P03699 1-98;1-55, |C28S). Kind of series: X-ray crystallography; FX2, 2.7 A; EMSA: 20 mM HEPES pH 7.5, 0.1 M NaCl, 5% glycerol, 500 ug/ml BSA, 1 mM EDTA, 1 mM DTT, 25 C; competitor 50 ug/ml poly dI/dC (34 bp), 5 ug/ml poly dI/dC (Fig 2). Particulars: protein: recombinant;recombinant; tags: ;; chain copies: 2;1.

Series [6] has as its target T1, Fis;Xis1-55. Kind of series: X-ray crystallography; FX1-2-1Xis, 3.60 A; Xis at X2; EMSA: 20 mM HEPES pH 7.5, 0.1 M NaCl, 5% glycerol, 500 ug/ml BSA, 1 mM EDTA, 1 mM DTT, 25 C; competitor 50 ug/ml poly dI/dC (34 bp), 5 ug/ml poly dI/dC (Fig 2). Particulars: protein: recombinant;recombinant; tags: ;; chain copies: 2;1.
Series [7] has as its target Fis;Xis1-55 (two protomers) (Escherichia coli?;phage lambda, UniProt P0A6R3;P03699 1-98;1-55, |C28S). Kind of series: X-ray crystallography; FX1-2-2Xis, 3.30 A; second Xis over X1 in reverse orientation; EMSA: 20 mM HEPES pH 7.5, 0.1 M NaCl, 5% glycerol, 500 ug/ml BSA, 1 mM EDTA, 1 mM DTT, 25 C; competitor 50 ug/ml poly dI/dC (34 bp), 5 ug/ml poly dI/dC (Fig 2). Particulars: protein: recombinant;recombinant; tags: ;; chain copies: 2;2.

The target of series [8] is T1, Fis;Xis1-55. Kind of series: X-ray crystallography (Br anomalous); EMSA: 20 mM HEPES pH 7.5, 0.1 M NaCl, 5% glycerol, 500 ug/ml BSA, 1 mM EDTA, 1 mM DTT, 25 C; competitor 50 ug/ml poly dI/dC (34 bp), 5 ug/ml poly dI/dC (Fig 2). The conditions noted are these: protein: recombinant;recombinant; tags: ;; chain copies: 2;1.

From article PMC7145599, “Cooperative DNA binding by proteins through DNA shape complementarity” (Nucleic Acids Research, 2019) come the findings set out here.

Take F-X2 34 bp (CA, native): in series [1], the Kd came to 400 nM. attR 263 bp: the binding signal (fold lower affinity than Xis-wt) came to 15 in series [2] and 10 in series [3].

B1: Xis^1-55 (phage lambda Xis residues 1-55 with a cysteine to serine substitution at residue 28) (domain or fragment, UniProt P03699 1-55, looked up)
chain: MYLTLQEWNARQRRPRSLETVRRWVRESRIFPPPVKDGREYLFHESAVKVDLNRP
notes: Used for crystallography; The full-length Cys28Ser xis gene (pRJ2178, pET11a) was used for the gel shift assays on DNA, which are not written here; also called Xis protomer; Xis monomer
For the molecule B1, the binding result in series [4] is on record as “binds”.

B2: Escherichia coli Fis protein (natural protein)
chain: MFEQRVNSDVLTVSTVNSQDQVTQKPLRDSVKQALKNYFAQLNGQDVNDLYELVLAEVEQPLLDMVMQYTRGNQTRAALMMGINRGTLRKKLKKYGMN
notes: Fis, bacterial nucleoid / DNA architectural protein of Escherichia coli; the N-terminal beta-hairpin arms are not resolved in the crystals; also called Fis dimer
As to B2, the “stoichiometry N” value in series [4] was found to be 2.

B3: FX2 27 bp (dsDNA)
DNA 1: AATTTTGCATAAAAAACAGACTACATT
DNA 2: AATGTAGTCTGTTTTTTATGCAAAATT
Turning to B3, the binding result in series [5] was “binds”.

B4: FX1-2 27 bp (dsDNA)
DNA 1: AATGTTGTGTTTTTAACAGACTACATT
DNA 2: AATGTAGTCTGTTAAAAACACAACATT
In the case of B4, the binding result in series [6] and in series [7] was “binds” in each case.

B5: FX1-2 27 bp 5-BrdU (dsDNA)
DNA 1: AATGTTGTGTTTTTAACAGACTACATT
DNA 2: AATGTAGTCTGTTAAAAACACAACATT
modifications: 5-bromodeoxyuridine at asterisked T positions (incl. nt 8 and 12 from the central T)
As for B5, in series [8], the binding result was “binds”.
